Experimental data as given in PMC8880714, “Antimicrobial effect and mechanism of bovine lactoferrin against the potato common scab pathogen Streptomyces scabiei” (PLoS ONE, 2022).

B1: Human lactoferrin (hLF): Human-derived lactoferrin purchased from FUJIFILM Wako (protein, UniProt P02788 20-710, looked up)
Lactotransferrin: GRRRSVQWCAVSQPEATKCFQWQRNMRKVRGPPVSCIKRDSPIQCIQAIAENRADAVTLDGGFIYEAGLAPYKLRPVAAEVYGTERQPRTHYYAVAVVKKGGSFQLNELQGLKSCHTGLRRTAGWNVPIGTLRPFLNWTGPPEPIEAAVARFFSASCVPGADKGQFPNLCRLCAGTGENKCAFSSQEPYFSYSGAFKCLRDGAGDVAFIRESTVFEDLSDEAERDEYELLCPDNTRKPVDKFKDCHLARVPSHAVVARSVNGKEDAIWNLLRQAQEKFGKDKSPKFQLFGSPSGQKDLLFKDSAIGFSRVPPRIDSGLYLGSGYFTAIQNLRKSEEEVAARRARVVWCAVGEQELRKCNQWSGLSEGSVTCSSASTTEDCIALVLKGEADAMSLDGGYVYTAGKCGLVPVLAENYKSQQSSDPDPNCVDRPVEGYLAVAVVRRSDTSLTWNSVKGKKSCHTAVDRTAGWNIPMGLLFNQTGSCKFDEYFSQSCAPGSDPRSNLCALCIGDEQGENKCVPNSNERYYGYTGAFRCLAENAGDVAFVKDVTVLQNTDGNNNEAWAKDLKLADFALLCLDGKRKPVTEARSCHLAMAPNHAVVSRMDKVERLKQVLLHQQAKFGRNGSDCPDKFCLFQSETKNLLFNDNTECLARLHGKTTYEKYLGPQYVAGITNLKKCSTSPLLEACEFLRK
B2: Bovine lactoferrin (bLF): Bovine-derived lactoferrin purchased from FUJIFILM Wako (protein, UniProt P24627 20-708, looked up)
Lactotransferrin: APRKNVRWCTISQPEWFKCRRWQWRMKKLGAPSITCVRRAFALECIRAIAEKKADAVTLDGGMVFEAGRDPYKLRPVAAEIYGTKESPQTHYYAVAVVKKGSNFQLDQLQGRKSCHTGLGRSAGWIIPMGILRPYLSWTESLEPLQGAVAKFFSASCVPCIDRQAYPNLCQLCKGEGENQCACSSREPYFGYSGAFKCLQDGAGDVAFVKETTVFENLPEKADRDQYELLCLNNSRAPVDAFKECHLAQVPSHAVVARSVDGKEDLIWKLLSKAQEKFGKNKSRSFQLFGSPPGQRDLLFKDSALGFLRIPSKVDSALYLGSRYLTTLKNLRETAEEVKARYTRVVWCAVGPEEQKKCQQWSQQSGQNVTCATASTTDDCIVLVLKGEADALNLDGGYIYTAGKCGLVPVLAENRKSSKHSSLDCVLRPTEGYLAVAVVKKANEGLTWNSLKDKKSCHTAVDRTAGWNIPMGLIVNQTGSCAFDEFFSQSCAPGADPKSRLCALCAGDDQGLDKCVPNSKEKYYGYTGAFRCLAEDVGDVAFVKNDTVWENTNGESTADWAKNLNREDFRLLCLDGTRKPVTEAQSCHLAVAPNHAVVSRSDRAAHVKQVLLHQQALFGKNGKNCPDKFCLFKSETKNLLFNDNTECLAKLGGRPTYEEYLGTEYVTAIANLKKCSTSPLLEACAFLTR
B3: Holo-bLF: Iron-saturated (holo) bLF, iron saturation 95.5% (protein, UniProt P24627 20-708, looked up)
Lactotransferrin: B2 Lactotransferrin
modifications: iron-saturated (holo)
B4: Apo-bLF: Iron-depleted (apo) bLF, iron saturation 0.35% (protein, UniProt P24627 20-708, looked up)
Lactotransferrin: B2 Lactotransferrin
modifications: iron-depleted (apo)

Assays:
Streptomyces scabiei S58 [1] = experiment: microbe, parasite or virus in culture; type: cell-based; conditions: TSB, 28 °C, 72 h, absorbance 600 nm; for IC50: S. scabiei S58 spores 2 × 10^5/mL, probit analysis, mean ± SD, n = 3, read-out: Antimicrobial activity (IC50)
Procedure: S. scabiei S58, isolated from potatoes grown in Kagoshima, Japan, was used in this study. […] For antimicrobial assays, the spores of the isolate were incubated at 28 °C in tryptic soy broth (TSB) (Becton Dickinson, Sparks, USA). Escherichia coli strains JM109 and BL21(λDE3) were grown at 37 °C in Luria-Bertani broth supplemented with 100 μg/mL ampicillin for propagation.
(§1) A 12-well plate was used to assess the antimicrobial activity of LF, hydrolysate, LFcinB, and synthetic peptides. One milliliter of TSB containing each test substance was added to each well and then the spores of S. scabiei S58, prepared as described above, were added into each well at a final concentration of 2 × 10^5 spores/mL. The mixture was incubated at 28 °C for 72 h, and the absorbance was measured at 600 nm to monitor bacterial growth. To further confirm whether the antimicrobial activity is due to growth inhibition or bactericidal effect, 1 mL of TSB containing 2 ×10^3 spores and bLF (1 mg/mL) was incubated at 28 °C and directly cultured on STA after 5, 10, 15, 24, 48, and 72 h of incubation to count the emerging colonies. All assays were performed in duplicate and were repeated three times.

Streptomyces scabiei S58 [2] = experiment: Bactericidal effect assay: colony counting on starch agar after treatment; type: cell-based; conditions: bLF 1 mg/mL, 2 × 10^3 spores in 1 mL TSB, 28 °C
Procedure: as §1
Fig 3 Bactericidal effect of bovine-derived lactoferrin (bLF) (A) and minimal inhibitory concentration (MIC) of bLF (B) on Streptomyces scabiei S58. For the assay of bactericidal effect, the mixture of bLF and spores (2 × 10^3/mL) was incubated at 28 °C and directly cultured on starch agar in a time-dependent manner. The number of colonies emerging on the plates was counted. For the MIC assay, the mixture of bLF and spores (2 × 10^5/mL) was incubated at 28 °C for 72 h in tryptic soy broth and the absorbance was measured at 600 nm to monitor bacterial growth. […]

Molecule | IC50 (Streptomyces scabiei S58 [1]) [µM] | Minimal inhibitory concentration (no growth observed at this concentration and above) (Streptomyces scabiei S58 [1]; spores 2 × 10^5/mL) [µM] | Number of colonies after treatment, at 5 h (Streptomyces scabiei S58 [2]; plated on starch agar after 5 h) | Number of colonies after treatment, at 48 h (Streptomyces scabiei S58 [2]; plated on starch agar after 48 h)
B1 | 138 ± 7.96 | – | – | –
B2 | 0.458 ± 0.074 | 3.9 | sharp decrease in the number of colonies | only a few colonies remained
B3 | 2.18 ± 0.428 | – | – | –
B4 | 2.39 ± 0.203 | – | – | –
